# Experimental data from paper PMC4872126, “Mechanistic insight into cadmium-induced inactivation of the Bloom protein”.
# Legend:
# [1] = biological target: RecQ E. coli (Escherichia coli, UniProt P15043 1-609); experiment: fluorescence anisotropy; IC50 of CdCl2 inhibiting binding (not protein affinity); 200 nM protein, 5 nM DNA; 50 mM Tris-HCl pH 8.0, 50 mM NaCl, 1 mM DTT, 25 C; 200 nM protein, 5 nM 3'-fluorescein DNA; conditions: protein: recombinant; label: 3'-fluorescein
# [2] = biological target: T1, BLM642-1290 (human, UniProt P54132 642-1290); experiment: as above; conditions: protein: recombinant; label: 3'-fluorescein
# [3] = biological target: BLM full-length (human, UniProt P54132 1-1417); experiment: as above; conditions: protein: recombinant; (Ni-NTA purified); label: 3'-fluorescein
# [4] = biological target: T1, BLM642-1290; experiment: fluorescence anisotropy; 0.5 mM NEM, 2 mM DTT, no Cd2+; 50 mM Tris-HCl pH 8.0, 50 mM NaCl, 1 mM DTT, 25 C; 200 nM protein, 5 nM 3'-fluorescein DNA; conditions: protein: recombinant; label: 3'-fluorescein
# T1 sequence (P54132 642-1290): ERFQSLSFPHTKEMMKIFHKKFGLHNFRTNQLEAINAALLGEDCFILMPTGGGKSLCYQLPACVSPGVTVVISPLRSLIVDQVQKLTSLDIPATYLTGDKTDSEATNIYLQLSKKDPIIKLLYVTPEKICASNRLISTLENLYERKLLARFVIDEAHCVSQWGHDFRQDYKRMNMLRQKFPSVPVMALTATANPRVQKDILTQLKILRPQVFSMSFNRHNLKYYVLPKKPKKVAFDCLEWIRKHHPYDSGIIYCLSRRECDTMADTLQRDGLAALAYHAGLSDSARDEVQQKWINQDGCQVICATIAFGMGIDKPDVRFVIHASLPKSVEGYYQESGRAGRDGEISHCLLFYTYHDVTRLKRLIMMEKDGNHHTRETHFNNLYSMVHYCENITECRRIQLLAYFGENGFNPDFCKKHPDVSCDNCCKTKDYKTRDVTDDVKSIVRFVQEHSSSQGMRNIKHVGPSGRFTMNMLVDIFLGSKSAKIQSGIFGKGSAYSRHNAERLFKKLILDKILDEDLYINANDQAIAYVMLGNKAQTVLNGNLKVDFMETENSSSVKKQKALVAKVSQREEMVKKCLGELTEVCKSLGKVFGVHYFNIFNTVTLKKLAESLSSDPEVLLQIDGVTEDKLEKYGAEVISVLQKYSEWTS
# BLM full-length, sequence (P54132 whole entry): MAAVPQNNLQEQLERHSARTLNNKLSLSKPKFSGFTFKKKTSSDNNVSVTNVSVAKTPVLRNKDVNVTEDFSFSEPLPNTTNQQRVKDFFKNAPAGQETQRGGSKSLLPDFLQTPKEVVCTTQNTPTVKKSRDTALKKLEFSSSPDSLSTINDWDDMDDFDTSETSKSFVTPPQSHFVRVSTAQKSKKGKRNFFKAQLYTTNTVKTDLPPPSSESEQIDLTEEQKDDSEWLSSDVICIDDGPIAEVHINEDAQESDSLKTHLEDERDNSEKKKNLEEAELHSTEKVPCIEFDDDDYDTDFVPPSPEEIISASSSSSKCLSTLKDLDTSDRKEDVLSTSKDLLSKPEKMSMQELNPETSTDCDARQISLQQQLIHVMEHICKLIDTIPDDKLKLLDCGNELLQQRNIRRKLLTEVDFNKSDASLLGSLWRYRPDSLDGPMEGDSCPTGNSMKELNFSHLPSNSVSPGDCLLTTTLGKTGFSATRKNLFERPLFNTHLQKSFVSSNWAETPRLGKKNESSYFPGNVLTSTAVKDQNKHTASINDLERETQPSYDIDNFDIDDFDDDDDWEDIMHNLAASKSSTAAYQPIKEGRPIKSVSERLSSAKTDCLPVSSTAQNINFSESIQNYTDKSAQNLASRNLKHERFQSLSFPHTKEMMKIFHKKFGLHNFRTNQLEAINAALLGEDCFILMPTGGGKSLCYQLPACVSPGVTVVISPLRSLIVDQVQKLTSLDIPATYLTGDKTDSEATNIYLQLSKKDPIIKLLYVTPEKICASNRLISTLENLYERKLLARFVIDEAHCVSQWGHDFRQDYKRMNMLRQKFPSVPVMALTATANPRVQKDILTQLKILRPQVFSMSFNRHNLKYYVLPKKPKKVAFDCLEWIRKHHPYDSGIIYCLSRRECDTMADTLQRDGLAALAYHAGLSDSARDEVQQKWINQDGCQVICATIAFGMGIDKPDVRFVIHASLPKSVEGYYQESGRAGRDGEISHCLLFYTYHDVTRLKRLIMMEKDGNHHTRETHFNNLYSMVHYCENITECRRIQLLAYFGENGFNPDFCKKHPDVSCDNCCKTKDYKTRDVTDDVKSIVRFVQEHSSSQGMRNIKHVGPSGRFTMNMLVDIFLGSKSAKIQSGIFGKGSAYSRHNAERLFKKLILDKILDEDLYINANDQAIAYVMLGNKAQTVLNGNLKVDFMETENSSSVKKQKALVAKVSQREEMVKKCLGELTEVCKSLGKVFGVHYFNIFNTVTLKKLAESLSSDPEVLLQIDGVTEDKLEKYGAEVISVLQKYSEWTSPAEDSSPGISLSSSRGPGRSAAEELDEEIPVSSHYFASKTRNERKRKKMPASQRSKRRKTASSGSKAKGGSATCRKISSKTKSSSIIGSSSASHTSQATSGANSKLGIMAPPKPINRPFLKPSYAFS
# RecQ E. coli, sequence (P15043 whole entry): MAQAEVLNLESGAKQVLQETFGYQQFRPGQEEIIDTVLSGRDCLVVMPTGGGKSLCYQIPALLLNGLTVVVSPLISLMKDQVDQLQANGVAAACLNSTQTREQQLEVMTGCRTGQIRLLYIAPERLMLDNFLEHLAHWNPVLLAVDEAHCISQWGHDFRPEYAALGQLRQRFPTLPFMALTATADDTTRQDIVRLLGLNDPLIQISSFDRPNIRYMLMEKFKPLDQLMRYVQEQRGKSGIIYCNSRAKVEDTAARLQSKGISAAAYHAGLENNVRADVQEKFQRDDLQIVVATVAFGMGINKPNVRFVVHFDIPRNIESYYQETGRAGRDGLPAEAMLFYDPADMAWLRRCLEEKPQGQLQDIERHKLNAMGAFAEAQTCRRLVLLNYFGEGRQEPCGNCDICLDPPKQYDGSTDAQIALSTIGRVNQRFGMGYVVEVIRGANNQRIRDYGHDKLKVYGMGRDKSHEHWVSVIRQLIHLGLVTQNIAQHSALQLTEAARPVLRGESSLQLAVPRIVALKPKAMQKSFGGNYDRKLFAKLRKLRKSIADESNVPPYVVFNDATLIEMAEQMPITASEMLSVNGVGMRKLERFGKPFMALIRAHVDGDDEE
Binder,IC50 [1],IC50 [2],IC50 [3],binding result [4]
GCCCTGCTGCCGACCAACGAAGGT (ssDNA) [F-24 ss],40.2 µM,10.2 µM,6.63 µM,–
GCCTCGCTGCCGTCGCCA (ssDNA) [F-18],–,–,–,binds
GCCCTGCTGCCGACCAACGATGGTTACATTCCCGCTGCTG (ssDNA) [F-40],39.2 µM,9.98 µM,6.64 µM,–
